Data from PMC9959508.

Target: human angiotensin-converting enzyme 2 (human) (UniProt Q9BYF1)
Sequence (Q9BYF1 18-805): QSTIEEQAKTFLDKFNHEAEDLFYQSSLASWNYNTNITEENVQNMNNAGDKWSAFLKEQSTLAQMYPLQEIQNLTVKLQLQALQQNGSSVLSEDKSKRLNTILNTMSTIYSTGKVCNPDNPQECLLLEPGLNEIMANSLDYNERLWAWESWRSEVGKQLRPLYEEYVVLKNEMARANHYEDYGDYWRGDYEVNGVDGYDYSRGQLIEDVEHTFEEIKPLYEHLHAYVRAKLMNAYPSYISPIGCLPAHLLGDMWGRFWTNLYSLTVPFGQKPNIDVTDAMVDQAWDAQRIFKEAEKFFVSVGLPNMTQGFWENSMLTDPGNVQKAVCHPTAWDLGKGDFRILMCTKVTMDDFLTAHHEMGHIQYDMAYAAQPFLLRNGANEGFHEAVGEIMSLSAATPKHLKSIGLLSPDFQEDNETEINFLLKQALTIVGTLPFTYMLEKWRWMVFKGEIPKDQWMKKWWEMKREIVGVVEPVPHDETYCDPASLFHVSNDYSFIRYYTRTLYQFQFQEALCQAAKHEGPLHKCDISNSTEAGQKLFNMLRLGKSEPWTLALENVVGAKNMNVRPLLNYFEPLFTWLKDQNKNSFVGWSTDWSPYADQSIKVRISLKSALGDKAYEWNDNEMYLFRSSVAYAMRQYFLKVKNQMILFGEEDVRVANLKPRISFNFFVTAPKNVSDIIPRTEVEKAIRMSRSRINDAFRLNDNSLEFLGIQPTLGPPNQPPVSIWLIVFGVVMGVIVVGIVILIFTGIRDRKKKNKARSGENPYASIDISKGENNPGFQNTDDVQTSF

PCSK9 lacking the CHRD, sequence (Q8NBP7 31-152): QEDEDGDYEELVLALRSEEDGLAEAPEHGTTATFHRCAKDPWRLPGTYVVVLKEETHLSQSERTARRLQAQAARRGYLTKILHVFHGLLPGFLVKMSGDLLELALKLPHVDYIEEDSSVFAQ
PCSK9 lacking the CHRD, sequence (Q8NBP7 153-455): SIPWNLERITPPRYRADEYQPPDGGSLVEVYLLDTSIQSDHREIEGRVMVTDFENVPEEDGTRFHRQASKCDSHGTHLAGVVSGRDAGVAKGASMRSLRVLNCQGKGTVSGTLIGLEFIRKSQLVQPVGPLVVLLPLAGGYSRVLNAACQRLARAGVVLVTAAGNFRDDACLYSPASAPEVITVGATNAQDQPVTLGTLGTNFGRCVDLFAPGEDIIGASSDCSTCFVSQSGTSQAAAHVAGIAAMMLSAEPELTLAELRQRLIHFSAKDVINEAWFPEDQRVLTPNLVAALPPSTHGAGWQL
PCSK9 lacking the M2 module of the CHRD, sequence (Q8NBP7 31-152): as the sequence (Q8NBP7 31-152) above
PCSK9 lacking the M2 module of the CHRD, sequence (Q8NBP7 153-692): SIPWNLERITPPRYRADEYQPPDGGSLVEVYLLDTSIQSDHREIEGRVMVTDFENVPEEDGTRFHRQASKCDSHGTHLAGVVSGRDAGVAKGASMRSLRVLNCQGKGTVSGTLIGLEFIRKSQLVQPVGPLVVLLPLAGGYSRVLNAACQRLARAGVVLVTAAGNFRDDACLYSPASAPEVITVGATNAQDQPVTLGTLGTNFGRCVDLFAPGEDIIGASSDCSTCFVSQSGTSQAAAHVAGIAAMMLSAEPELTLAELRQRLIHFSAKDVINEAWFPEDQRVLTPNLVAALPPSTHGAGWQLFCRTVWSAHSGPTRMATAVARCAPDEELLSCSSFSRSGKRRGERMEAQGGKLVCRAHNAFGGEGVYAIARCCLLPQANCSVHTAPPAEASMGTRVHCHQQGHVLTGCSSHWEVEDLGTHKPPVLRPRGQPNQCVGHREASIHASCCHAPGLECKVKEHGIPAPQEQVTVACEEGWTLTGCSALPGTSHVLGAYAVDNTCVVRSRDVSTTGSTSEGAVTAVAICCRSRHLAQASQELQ
wild-type human PCSK9, mature (prodomain non-covalently bound to the rest of the protein), sequence (Q8NBP7 31-152): as the sequence (Q8NBP7 31-152) above
wild-type human PCSK9, mature (prodomain non-covalently bound to the rest of the protein), sequence (Q8NBP7 153-692): as the sequence (Q8NBP7 153-692) above

reduction of the level of ACE2 in HeLa cells after 18 h with conditioned medium (Western blot, relative to β-actin) [%] | reduction of the level of ACE2 in HeLa cells after 18 h with PCSK9 conditioned medium (Western blot, relative to β-actin) [%] | Substance
50 | – | PCSK9 lacking the CHRD (from UniProt Q8NBP7 31-152; Q8NBP7 153-455) (domain or fragment)
50 | – | PCSK9 lacking the M2 module of the CHRD (from UniProt Q8NBP7 31-152; Q8NBP7 153-692) (natural protein)
90 | – | PCSK9-D374Y, gain-of-function natural variant (from UniProt Q8NBP7 31-152; Q8NBP7 153-692) (natural protein)
– | 30 | wild-type human PCSK9, mature (prodomain non-covalently bound to the rest of the protein) (from UniProt Q8NBP7 31-152; Q8NBP7 153-692) (natural protein)
